Test results taken from PMC8213764.
Values joined by “and” are separate entries in the source; they are usually repeats but may differ in a detail not shown here. Identical values can stand only once.

Target: Human intelectin-1 (ITLN1) of human ileal lysates, genotype at residue 109 not told for the sentence (human (endogenous in ileum)) (UniProt Q8WWA0)
Assay: non-reducing SDS-PAGE immunoblot; human ileal lysates (150 mM NaCl, 1% Triton X-100, 0.5% sodium deoxycholate, 0.1% SDS, 50 mM Tris pH 8.0), heated at 95 °C for 30 min without 2-mercaptoethanol, gradient SDS-PAGE (4-20%), immunoblot; oligomers stable under denaturing conditions

Substance: Human intelectin-1 (ITLN1) of human ileal lysates, genotype at residue 109 not told for the sentence (from UniProt Q8WWA0 19-298) (natural protein)
- stoichiometry N: 3 and 6
